Assay results published in publication PMC1540728.

Assays:
Assay in all cases: NMR titration
hnRNP F qRRM2 = biological target: T1, hnRNP F qRRM2 (Homo sapiens, UniProt P52597 103-194)
T1 sequence: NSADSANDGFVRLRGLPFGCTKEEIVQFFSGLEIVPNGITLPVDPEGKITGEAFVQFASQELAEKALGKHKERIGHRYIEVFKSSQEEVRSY

hnRNP F qRRM3 = biological target: T2, hnRNP F qRRM3 (Homo sapiens, UniProt P52597 277-381)
T2 sequence: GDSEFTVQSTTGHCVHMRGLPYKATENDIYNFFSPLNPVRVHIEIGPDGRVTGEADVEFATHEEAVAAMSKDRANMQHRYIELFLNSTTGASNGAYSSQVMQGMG

hnRNP F qRRM1-2 = biological target: T3, hnRNP F qRRM1-2 (Homo sapiens, UniProt P52597 1-194)
T3 sequence: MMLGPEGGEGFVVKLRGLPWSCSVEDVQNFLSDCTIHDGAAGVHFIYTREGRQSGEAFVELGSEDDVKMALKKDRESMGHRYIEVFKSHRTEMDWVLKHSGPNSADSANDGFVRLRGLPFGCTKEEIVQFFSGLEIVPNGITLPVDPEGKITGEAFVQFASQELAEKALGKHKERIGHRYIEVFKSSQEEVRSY

Row | Binder | binding result (hnRNP F qRRM2) | other results
1 | UGCAUG (ssRNA) [Fox RNA-binding site UGCAUG] | no binding | 
2 | GGG (ssRNA) [GGG RNA] | binds | 
3 | CUGGGGU (structured_RNA) [Bcl-x third G-tract RNA] |  | binding result (hnRNP F qRRM3): no binding
4 | CGGGAUGGGGUA (structured_RNA) [Bcl-x G-tracts 1-2 RNA] |  | binding result (hnRNP F qRRM1-2): binds
